The values below come from patent US10494417B2, “Peptide inhibitors of BCR-ABL oligomerization” (University of Utah Research Foundation, priority 2014, dated 2019).

For one data set, the system named is Ba/F3-p210-T315I cells. The data set can be described thus: Trypan blue proliferation assay of transfected Ba/F3-p210-T315I cells. To be noted: CC^mut3 alone, trypan blue exclusion, 72 and 96 h. It counts as cell-based, mouse. On the procedure:
Cell counts were performed using a standard light microscope.

Data set [1] has as its system K562 cells. The data set can be described thus: Cell proliferation (trypan blue) of protein-treated K562 cells. It counts as cell-based, human. To be noted: proteins 30 μM or imatinib. As for the experimental part:
Independent treatments were tested three times (n=3).

Data set [2] has as its system K562 cells. The data set can be described thus: Colony forming assay of transfected K562 cells. To be noted: for colony formation (transformative ability), in words: construct delivered as a gene by transfection, vs EGFP (and WT) control. It counts as cell-based, human. As for the experimental part:
Both EGFP and EGFP-CC^mut3 were transfected into separate groups of cells on day 0. One day following transfection, 1.0×10^6 cells per treatment group were collected and re-suspended in 1.0 mL of PBS. Through serial dilutions, 1.0×10^3 cells in IMDM (Isocove's modified Dulbecco's media) with 2% FBS were seeded into methylcellulose medium in the absence of cytokines (MethoCult H4230 for K562 cells and MethoCult M3234 for p210 and p210-T315I cells) or in the presence of cytokines (MethoCult GF M3434 for parental Ba/F3 cells). Ponatinib was then added in the correct molar amounts (0, 100 pM, 1 nM, or 10 nM) to the methylcellulose medium. Colonies formed were counted after 7 days of incubation. All reagents were purchased from Stem Cell Technologies, Vancouver, BC, Canada. Assay was run three separate times (n=3) in duplicate.
Briefly, K562 or Ba/F3-p210 cells were transfected according to the protocol above. One day following transfection, 1.0×10^6 cells per transfection group were collected and re-suspended in sterile PBS. […] Finally, 1.1 mL of cell/methylcellulose mixture was seeded in duplicate and allowed to grow at 37° C. and 5% CO2 for 7 days. Colony formation was assessed by counting colonies in two 200 μm2 areas on the plate. Experiments were performed once in duplicate (n=1 in duplicate). All kit reagents and media were purchased from Stem Cell Technologies (Vancouver, BC, Canada).

The subject of data set [3] is Ba/F3 cells expressing BCR-ABL1E255V. The data set can be described thus: Colony forming assay of Ba/F3 BCR-ABL1 E255V cells. Particulars: for colony formation, in words: CCmut3 gene delivery (transfection; b502 lentiviral infection) vs EV; for reduction in CFCs / colony forming ability: CCmut3 vs EV. It counts as cell-based, mouse. As for the experimental part:
Following selection of transfected cells by cell sorting, viable cells were enumerated and seeded into methylcellulose as described previously (Dixon, A. S., et al. (2011) J. Biol. Chem. 286, 27751-27760). Briefly, mCherry-positive Ba/F3 cells were re-suspended in IMDM with 2% FBS (Stem Cell Technologies) at a concentration of 10,000 cells/mL. Three hundred microliters of this dilution was added to 3 mL of Methocult media (M3434—Ba/F3 p210 wild-type and mutant lines or M3234—Ba/F3 parental, Stem Cell Technologies). Approximately 1100 cells, or 1.2 mL, were seeded per dish in duplicate for each transfection. Colonies were counted 7 days later in an area of […] per dish.
Following selection of transfected cells by cell sorting, methylcellulose colony assays were performed by plating in 0.9% methylcellulose (Stem Cell Technologies; M3234 for Ba/F3 BCR-ABL1 native and mutant lines; M3434 for Ba/F3 parental cells; H4230 for CML patient samples). mCherry-positive Ba/F3 cells (1.1×10^3 cells/plate) or GFP-positive primary CML CD34+ cells (1×10^3 cells/plate) were seeded per dish in duplicate. In the case of CML patient samples, cells were plated in the presence of 1× StemSpan CC100 cytokine cocktail (StemCell Technologies). All cells were plated with or without the indicated TKI in three or more independent experiments. Plates were incubated at 37° C. in a 5% CO2 humidified incubator. Colonies were counted 7-14 days later in an area of 50 μm2 per dish using an inverted microscope.

The subject of data set [4] is K562 cells. The data set can be described thus: Peptide internalization Western blot, K562 cells. It counts as cell-based, human. To be noted: 30 μM, 1.5 hours, Western blot of cell lysates. On the procedure:
1.0×10^6 cells resuspended in RPMI or DMEM were seeded in a CellStar 6 well plate (Sigma Aldrich). Cells were then treated with the peptides (CPP-CCmut3, CPP-CCwt, CCmut3, and CPP-His) at a final concentration 30 uM. This is a standard concentration used in cell-penetrating peptide studies. For the kinase activity Western blot, cells were treated with peptides for 16 hours.
For the internalization experiment, cells were treated with peptides for 1.5 hours followed by a 15 minute incubation at 37° C. with heparin sulfate, 0.5 mg/mL (a gift from Kuby Balagurunathan, University of Utah). Cells were centrifuged and resuspended in 1 mL plain RPMI. Trypsin was added to a final concentration of 0.1% w/v, and the cells were incubated at 37° C. for 10 minutes. At that time 1 mL FBS was added to neutralize the trypsin. Cells were then centrifuged at 500×g for 10 minutes, followed by 3 rounds of washes with 5 mL cold PBS.
For both kinase activity and internalization Western blots, cells were resuspended in 100 μL of RIPA lysis buffer (Cell Signaling, Danvers, Mass., USA) with 100× protease/phosphatase inhibitor added (Cell Signaling) and transferred into a pre-chilled microcentrifuge tube. Cells were then sonicated, centrifuged at 12,000×g for 15 minutes, and then the supernatant was transferred into a fresh, pre-chilled microcentrifuge tube. […]

“Also recorded” adds a separate entry of the source.

B1: CCmut3: modified Bcr-Abl coiled-coil domain (residues 1-72) with mutations C38A, K39E, S41R, L45D, E48R, Q60E (protein)
chain: MVDPVGFAEAWKAQFPDSEPPRMELRSVGDIEQELERAEARIRRDEQRVNQERFRMIYLETLLAKEKKSYDR
In the case of B1, the cell proliferation entry in the data set with Ba/F3-p210-T315I cells is “inhibit Ba/F3-p210-T315I cell proliferation”; in the data set with K562 cells [1] it was “ineffective at reducing cell proliferation and colony forming compared to untreated cells”. Further, the “colony formation, of EGFP control” value with K562 cells [2] (7 days after seeding, normalized to EGFP control, n=1 in duplicate) is given as “approximately 20%”. Besides, the “decrease in the amount of colonies formed compared to EGFP” value in the data set on K562 cells [2] (CC^mut3 alone, no ponatinib, 7 days) is recorded as 3 fold. The “colony formation (transformative ability), in words” value with K562 cells [2] is given as “showed inhibitory activity”; in the data set on K562 cells [2] (listed as CC^mut3) it was “inhibits colony formation; also recorded: significantly greater inhibition”. In addition, the “colony formation, in words” value in data set [3] is on record as “significantly fewer colonies per unit area”; in data set [3] (listed as CC^mut3), “Inhibition in colony formation”. Also, the entries for the “reduction in CFCs / colony forming ability” value in data set [3] and in data set [3] (listed as CC^mut3) were over 10 fold and “more than 10 fold”, respectively. Moreover, the internalization into cells result with K562 cells [4] was “unable to enter the cells; also recorded: not internalized; also recorded: did not enter”.
